Results as given in PMC4948116.

Columns and labels:
Experiment in all cases: SPR
[1] = molecular target: Human recombinant CD16A-158V (human)
CD32A-131H (human) = CD32A-131H (human) (UniProt P12318)
[2] = molecular target: Human recombinant CD16A-158F (human) (UniProt P08637)
[3] = molecular target: Human recombinant CD16B (human) (UniProt O75015)
[4] = molecular target: Human recombinant CD32B (human) (UniProt P31994)
CD32A-131R (human) = molecular target: CD32A-131R (human)

Chain of UniProt P08637 (P08637 17-208): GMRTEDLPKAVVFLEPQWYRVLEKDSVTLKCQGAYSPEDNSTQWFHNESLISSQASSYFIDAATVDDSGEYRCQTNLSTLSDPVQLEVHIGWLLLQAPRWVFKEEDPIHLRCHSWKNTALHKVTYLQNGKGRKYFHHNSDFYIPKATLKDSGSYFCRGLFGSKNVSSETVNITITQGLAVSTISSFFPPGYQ
Chain of UniProt O75015 (O75015 17-200): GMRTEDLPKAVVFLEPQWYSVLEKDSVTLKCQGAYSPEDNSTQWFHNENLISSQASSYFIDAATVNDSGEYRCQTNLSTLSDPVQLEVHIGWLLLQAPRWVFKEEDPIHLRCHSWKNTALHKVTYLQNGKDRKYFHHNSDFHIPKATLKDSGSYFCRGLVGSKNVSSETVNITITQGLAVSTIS
Chain of UniProt P31994 (P31994 43-217): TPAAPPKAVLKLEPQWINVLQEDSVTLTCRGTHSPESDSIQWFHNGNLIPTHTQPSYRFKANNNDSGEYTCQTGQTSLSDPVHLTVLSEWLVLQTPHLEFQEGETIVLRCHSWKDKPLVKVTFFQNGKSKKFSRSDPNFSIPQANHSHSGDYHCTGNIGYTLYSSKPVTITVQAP
Chain of UniProt P12318 (P12318 34-317): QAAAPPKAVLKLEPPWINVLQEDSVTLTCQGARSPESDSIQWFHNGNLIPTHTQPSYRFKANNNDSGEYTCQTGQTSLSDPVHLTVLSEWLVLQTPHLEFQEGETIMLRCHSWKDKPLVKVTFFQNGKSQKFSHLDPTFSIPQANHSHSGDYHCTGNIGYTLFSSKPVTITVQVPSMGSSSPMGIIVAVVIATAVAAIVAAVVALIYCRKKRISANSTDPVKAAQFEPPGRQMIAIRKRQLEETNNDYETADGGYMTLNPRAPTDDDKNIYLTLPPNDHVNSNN

Row | Kd [1] | ka1 (two-state reaction, first step) [1] | kd1 (two-state reaction, first step) [1] | kd2 (two-state reaction, second step) [1] | Kd (CD32A-131H (human)) | Kd [2] | Kd [3] | Kd [4] | Kd (CD32A-131R (human)) | affinity relative to hu3F8-IgG1 on CD16A(158F) [2] | Substance
1 | 726 nM | 134000 M⁻¹ s⁻¹ | 0.212 s⁻¹ | 0.00897 s⁻¹ | 541 nM | 2090 nM | 2030 nM | 2400 nM | 786 nM | – | hu3F8-IgG1 (antibody)
2 | – | – | – | – | – | – | – | – | – | 16 fold | hu3F8-IgG1-DEL (antibody)
